Laboratory results: the supplement of paper PMC10201428
± gives the standard deviation of the averaged measurements.

Columns and labels:
[1] = tested on: VchCAST RNA-guided transposition machinery (E. coli BL21(DE3) host, lacZ target); assay: relative integration efficiency (T-RL orientation) vs wild-type transposon end (log2 (normalized fold change)); transposon end mutated: right end (5 bp flank + 75 bp right end); higher = more efficient transposition
Experimental: (§1)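 Pooled, barcoded VchCAST (Tn6677) mini-transposon donor libraries; each variable transposon-end sequence sits in a fixed pDonor mini-transposon context (10-bp barcode and cargo not included). Left- or right-end libraries were co-transformed with pEffector (TniQ-Cascade, TnsABC, lacZ crRNA, T7, 0.1 mM IPTG) into E. coli BL21(DE3) and grown 18 h at 37 C. T-LR and T-RL junction amplicons were sequenced; output/input barcode fold change was normalised to the mean of four wild-type barcodes and log2-transformed. Two biological replicates; zero-count/undetected variants carry floor values (-10 / -15), censored here. Barcode uncoupling by PCR recombination adds noise.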

[2] = tested on: VchCAST RNA-guided transposition machinery (E. coli BL21(DE3) host, lacZ target); assay: relative integration efficiency (T-LR orientation) vs wild-type transposon end (log2 (normalized fold change)); transposon end mutated: right end (5 bp flank + 75 bp right end); higher = more efficient transposition
Experimental: as §1

Row | Sequence | relative integration efficiency (log2) [1] | relative integration efficiency (log2) [2]
1 | AACGGTGTTGATACAACCATAAAATGATAATTACACCCATAAATTGATAATTATCACACCCATAAATTGATATTGCCTCTGATCATAGTCAGACCAACATTGCTACGACCCGTATTCGCACCGACAC | -0.153 ± 0.0083 | 0.221 ± 0.4
2 | AACTTTGTTGATACAACCATAAAATGATAATTACACCCATAAATTGATAATTATCACACCCATAAATTGATATTGCCTCTGATCATAGTCAGACCAACATTGCTACGACCCGTATTCGCACCGACAC | -0.217 ± 0.078 | 0.0855 ± 0.25
3 | ACAAATGTTGATACAACCATAAAATGATAATTACACCCATAAATTGATAATTATCACACCCATAAATTGATATTGCCTCTGATCATAGTCAGACCAACATTGCTACGACCCGTATTCGCACCGACAC | 0.215 ± 0.12 | 0.224 ± 0.075
4 | ACAGGTGTTGATACAACCATAAAATGATAATTACACCCATAAATTGATAATTATCACACCCATAAATTGATATTGCCTCTGATCATAGTCAGACCAACATTGCTACGACCCGTATTCGCACCGACAC | -0.284 ± 0.012 | -0.1 ± 0.25
5 | ACATAAGTTGATACAACCATAAAATGATAATTACACCCATAAATTGATAATTATCACACCCATAAATTGATATTGCCTCTGATCATAGTCAGACCAACATTGCTACGACCCGTATTCGCACCGACAC | -6.621 ± 0.045 | -4.25 ± 0.29
6 | ACATGGGTTGATACAACCATAAAATGATAATTACACCCATAAATTGATAATTATCACACCCATAAATTGATATTGCCTCTGATCATAGTCAGACCAACATTGCTACGACCCGTATTCGCACCGACAC | -6.44 ± 0.3 | -5.51 ± 0.64
7 | ACATTACAAGATACAACCATAAAATGATAATTACACCCATAAATTGATAATTATCACACCCATAAATTGATATTGCCTCTGATCATAGTCAGACCAACATTGCTACGACCCGTATTCGCACCGACAC | -5.91 ± 0.056 | -4.65 ± 0.93
8 | ACATTAGTCGATACAACCATAAAATGATAATTACACCCATAAATGGATAATTATCACACCCAATTTAACTATAACGCTCTGATCATAGTCAGACCAACATTGCTACGACCCGTATTCGCACCGACAC | -6.76 ± 0.26 | -5.29 ± 1.4
9 | ACATTAGTCGATACAACCATAAAATGATAATTACACCCATAAATGGATCATTATCACACCCAATTTAACTATAACGCTCTGATCATAGTCAGACCAACATTGCTACGACCCGTATTCGCACCGACAC | -8.21 ± 0.66 | -5.41 ± 0.28
10 | ACATTAGTCGATACAACCATAAAATGATAATTACACCCATAAATTCATCATTATCACACCCAATTTAACTATAACGCTCTGATCATAGTCAGACCAACATTGCTACGACCCGTATTCGCACCGACAC | -7.32 ± 0.43 | -6.06 ± 1.4
11 | ACATTAGTCGATACAACCATAAAATGATAATTACACCCATAAATTGATAATTATCACACCCAATTTAACTATAACGCTCTGATCATAGTCAGACCAACATTGCTACGACCCGTATTCGCACCGACAC | -7.53 ± 1.2 | -5.9 ± 1.5
12 | ACATTAGTCGATACAACCATAAAATGATAATTACACCCATAAATTGATCATTATCACACCCAATTTAACTATAACGCTCTGATCATAGTCAGACCAACATTGCTACGACCCGTATTCGCACCGACAC | -7.26 ± 0.69 | -3.34 ± 1
13 | ACATTTGTTGATGCAACCATAAAGTGATATTTAATAATTATTTATAATCAGCAACTTAACCACAAAACAACCATATATTGATATCTCACAAAACAACCATAAGTTGATATTTTCTCTGATCATAGTC |  | < -10
14 | CAAAATGTAAAAAAAACCATACGTTGATTTTACGAAACCATACGCTGAAATAAAAACAACCATACCTTGAAATTGCTTATAAAGTGTACAACACTTGAGAAAGTTTACTACAGGTATGCACCGACAC |  | < -10
15 | CAAAATGTTGATAAAACCATACGTTGATTTTACGAAACCATACGCTGAAATAAAAACAACCATACCTTGAAATTGCTTATAAAGTGTACAACACTTGAGAAAGTTTACTACAGGTATGCACCGACAC | -9.08 ± 1.1 | 
